Reference: the supplement of paper PMC9876800

System: peptide library, one residue held at a place counted from the S/T acceptor
Assay: relative phosphorylation of the sub-library (ratio to the mean residue at this position); human; higher = residue favoured
Procedure, shortened: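 Relative sub-library phosphorylation is the ratio of each sub-library's signal to the mean residue at that position. The signal came from phosphorimaging of spots on streptavidin membranes, quantified by densitometry, after purified recombinant kinases reacted with biotinylated degenerate peptide sub-libraries in 384-well plates. Reactions held 50 μM peptide and 50 μM ATP spiked with γ-32P-ATP for 90 min under kinase-specific conditions.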

Sequence of SLK, construct: Full length (Q9H2G2 whole entry, looked up): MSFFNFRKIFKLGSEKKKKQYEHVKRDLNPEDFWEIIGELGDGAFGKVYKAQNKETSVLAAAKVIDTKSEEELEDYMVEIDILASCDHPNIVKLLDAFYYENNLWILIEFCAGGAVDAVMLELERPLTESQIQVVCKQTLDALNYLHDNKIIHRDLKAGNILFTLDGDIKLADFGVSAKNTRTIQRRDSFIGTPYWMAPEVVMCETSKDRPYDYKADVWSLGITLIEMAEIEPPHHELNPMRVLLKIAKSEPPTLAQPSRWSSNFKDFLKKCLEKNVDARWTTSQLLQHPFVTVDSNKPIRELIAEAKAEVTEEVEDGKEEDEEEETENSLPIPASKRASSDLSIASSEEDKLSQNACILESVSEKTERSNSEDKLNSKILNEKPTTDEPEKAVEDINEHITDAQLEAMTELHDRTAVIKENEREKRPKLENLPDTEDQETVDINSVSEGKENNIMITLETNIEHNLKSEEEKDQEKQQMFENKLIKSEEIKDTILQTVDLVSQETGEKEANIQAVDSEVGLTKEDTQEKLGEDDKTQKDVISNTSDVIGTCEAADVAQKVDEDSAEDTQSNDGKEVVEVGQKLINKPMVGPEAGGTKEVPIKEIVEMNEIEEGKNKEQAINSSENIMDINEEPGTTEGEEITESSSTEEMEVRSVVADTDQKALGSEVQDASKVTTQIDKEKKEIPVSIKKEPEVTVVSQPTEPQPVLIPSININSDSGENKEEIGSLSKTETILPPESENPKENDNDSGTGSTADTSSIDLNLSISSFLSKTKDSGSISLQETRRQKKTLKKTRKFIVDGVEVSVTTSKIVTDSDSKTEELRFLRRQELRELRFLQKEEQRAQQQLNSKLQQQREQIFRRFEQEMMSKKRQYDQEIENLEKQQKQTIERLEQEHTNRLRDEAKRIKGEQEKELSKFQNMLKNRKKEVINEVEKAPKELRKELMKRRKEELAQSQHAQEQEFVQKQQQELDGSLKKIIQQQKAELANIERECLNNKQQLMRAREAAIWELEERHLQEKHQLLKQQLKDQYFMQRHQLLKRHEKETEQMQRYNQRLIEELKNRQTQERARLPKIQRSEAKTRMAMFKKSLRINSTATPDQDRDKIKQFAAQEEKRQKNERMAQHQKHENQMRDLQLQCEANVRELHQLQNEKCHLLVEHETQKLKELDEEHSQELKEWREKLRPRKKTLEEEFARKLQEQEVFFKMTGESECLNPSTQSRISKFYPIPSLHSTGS
Sequence of SIK3, construct: aa1-307 (Q9Y2K2 1-307, looked up): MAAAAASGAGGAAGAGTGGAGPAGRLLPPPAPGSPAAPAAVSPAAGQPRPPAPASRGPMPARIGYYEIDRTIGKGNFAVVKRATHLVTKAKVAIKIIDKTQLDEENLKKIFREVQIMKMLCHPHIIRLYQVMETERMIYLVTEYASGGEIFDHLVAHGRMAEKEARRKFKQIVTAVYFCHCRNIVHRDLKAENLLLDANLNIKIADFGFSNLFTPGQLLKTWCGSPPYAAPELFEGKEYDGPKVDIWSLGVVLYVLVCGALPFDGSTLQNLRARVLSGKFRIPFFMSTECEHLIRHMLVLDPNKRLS
Sequence of STK10, construct: aa18-317 (O94804 18-317, looked up): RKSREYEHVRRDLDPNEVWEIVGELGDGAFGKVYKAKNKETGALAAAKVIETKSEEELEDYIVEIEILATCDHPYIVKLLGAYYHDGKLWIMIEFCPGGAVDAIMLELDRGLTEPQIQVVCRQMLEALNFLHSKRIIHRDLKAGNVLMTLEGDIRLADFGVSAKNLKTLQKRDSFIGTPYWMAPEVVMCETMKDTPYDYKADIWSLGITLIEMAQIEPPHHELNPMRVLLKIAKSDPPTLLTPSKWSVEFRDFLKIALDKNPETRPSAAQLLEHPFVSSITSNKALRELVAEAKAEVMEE

SIK3, construct: aa1-307 (from UniProt Q9Y2K2)
relative phosphorylation
Details	at +1	at +2	at +3	at +4	at -1	at -2	at -3	at -4	at -5
A fixed	0.723	1.19	0.654	0.581	1.02	1.77	0.786	1.12	1.32
D fixed	0.537	0.686	2.07	0.508	0.631	0.339	0.328	0.773	0.8
E fixed	0.747	0.583	0.643	0.374	0.495	0.272	0.353	0.768	0.692
F fixed	0.727	0.687	0.914	0.724	0.497	1.06	0.698	0.867	1.06
G fixed	0.646	0.775	0.505	0.546	2.72	1.28	0.684	1.36	1.16
H fixed	0.747	1.14	1.36	0.678	0.857	1.3	1.11	1.19	0.856
I fixed	1.12	0.923	0.555	2.59	0.364	0.507	0.399	0.637	0.861
K fixed	0.88	0.578	0.728	0.56	1.77	1.17	2.13	1.21	1.02
L fixed	1.21	0.987	0.824	4.53	0.691	0.364	0.497	0.662	1.58
M fixed	2.13	1.08	0.759	1.55	0.781	0.591	0.649	0.991	1.2
N fixed	1.29	1.4	3.64	0.597	1.25	0.65	0.57	0.895	0.733
P fixed	0.373	1.17	0.359	0.637	1.53	0.538	0.939	1.16	0.954
Q fixed	1.84	0.988	0.853	0.481	1.29	0.526	0.704	0.8	0.725
R fixed	1.1	0.956	0.688	0.459	1.4	1.45	4.8	1.73	1.5
V fixed	1.28	0.926	0.488	1.18	0.463	0.645	0.427	0.645	0.695
W fixed	0.795	1.97	0.851	0.581	0.486	2.92	1.26	1.21	0.973
Y fixed	0.877	0.961	1.1	0.42	0.756	1.62	0.658	0.987	0.868
pThr fixed	0.992	0.79	0.348	0.35	0.294	0.444	0.527	0.647	0.667
pTyr fixed	0.487	0.297	0.335	0.324	0.589	0.442	0.522	0.627	0.782

SLK, construct: Full length (from UniProt Q9H2G2)
relative phosphorylation
Details	at +1	at +2	at +3	at +4	at -1	at -2	at -3	at -4	at -5
A fixed	0.368	0.647	0.652	0.778	0.576	0.458	0.681	1.05	1.07
D fixed	0.242	0.669	0.58	1.14	0.484	0.531	0.8	1.09	1.57
E fixed	0.198	0.358	0.515	0.774	0.33	0.306	0.686	1.08	1
F fixed	1.23	0.482	0.699	0.768	0.781	2.5	0.948	0.894	0.915
G fixed	0.428	0.917	1.01	1.04	0.478	0.424	0.641	1.2	1.06
H fixed	0.835	1.38	1.13	1.15	1.16	0.848	1.14	1.04	1.2
I fixed	1.39	0.349	0.454	0.648	0.287	0.263	0.314	0.6	0.552
K fixed	1.24	2.1	2.23	1.47	3.28	1.41	2.4	1.06	1.48
L fixed	2.29	0.478	0.632	0.8	0.881	0.357	0.386	0.706	0.617
M fixed	2.25	0.614	0.61	0.801	0.904	0.568	0.565	0.747	0.691
N fixed	0.877	1.22	1.27	1.04	1.59	0.737	1.11	0.85	1.21
P fixed	0.399	1.22	1.89	1.47	0.756	0.613	1	1.68	0.872
Q fixed	0.818	1.04	0.918	1.22	1.27	0.604	1.01	0.918	0.744
R fixed	1.11	3.74	2.14	1.45	1.68	1.13	1.79	1.11	1.31
V fixed	0.673	0.445	0.514	0.598	0.35	0.306	0.326	0.688	0.716
W fixed	1.49	0.745	0.911	1.04	0.781	0.862	1.95	1.36	1.12
Y fixed	1.16	0.599	0.844	0.81	1.41	5.07	1.26	0.95	0.872
pThr fixed	0.61	1	0.916	0.839	0.431	0.525	0.878	1.28	1.27
pTyr fixed	0.455	0.581	0.811	0.641	0.392	0.921	1.16	1.07	1.03

STK10, construct: aa18-317 (from UniProt O94804)
relative phosphorylation
Details	at +1	at +2	at +3	at +4	at -1	at -2	at -3	at -4	at -5
A fixed	0.6	0.853	0.817	0.9	0.811	0.667	0.873	0.975	1.15
D fixed	0.168	0.371	0.456	0.637	0.412	0.51	0.598	0.695	0.905
E fixed	0.167	0.225	0.409	0.563	0.304	0.216	0.598	0.776	0.605
F fixed	1.23	0.634	0.846	0.816	0.911	2.13	1.02	0.85	0.846
G fixed	0.564	1.09	1.09	1.21	0.703	0.543	0.936	1.35	1.28
H fixed	1.06	1.48	1.26	1.04	1.41	1.07	1.25	1.16	1.15
I fixed	1.47	0.48	0.568	0.666	0.539	0.384	0.505	0.718	0.672
K fixed	1.04	2.28	1.92	1.7	1.99	1.86	2.07	1.62	1.81
L fixed	2.1	0.629	0.809	0.876	1.18	0.559	0.612	0.767	0.654
M fixed	1.83	0.729	0.72	0.827	1.12	0.918	0.759	0.858	0.768
N fixed	0.757	1.12	0.961	1.17	1.13	0.879	1.07	0.837	1.15
P fixed	0.321	1.05	1.62	1.48	0.584	0.492	0.85	1.14	1.09
Q fixed	0.763	0.952	0.954	1.17	1.03	0.777	1.02	0.956	0.82
R fixed	1.18	3.13	2.06	1.63	1.96	1.72	2.01	1.58	1.73
V fixed	0.956	0.56	0.613	0.724	0.6	0.485	0.475	0.795	0.814
W fixed	1.49	0.732	0.987	0.896	0.93	0.881	1.24	1.05	0.769
Y fixed	1.3	0.688	0.91	0.699	1.38	2.91	1.11	0.877	0.788
pThr fixed	0.44	0.484	0.586	0.537	0.274	0.358	0.612	0.857	0.871
pTyr fixed	0.362	0.314	0.667	0.476	0.382	0.491	0.938	0.816	0.855
